Measurements as given in a protein production outcome set (Wang et al. 2014).

Assay: label from the status in PepcDB records

Sequence	protein production
SGGGGKAWPTHVVCSDSGLEVLYQSCDPLQDFGFSVEKCSKQLKSNINIRFGIILREDIKELFLDLALMSQGSSVLNFSYPICEAALPKFSFCGRRKGEQIYYAGPVNNPEFTIPQGEYQVLLELYTEKRSTVACANATIMCS	failed
MDQLFRYPLHQIPLVAMAIIIALSVHEFAHAYVAYKFGDDTAKRQGRLTLSPMAHLDPIGMIAVLILGFGWARRVPVNPYNFKRPRLAGILVSIAGPISNLILSAIGLIIWYSLLTFGVLDSIPFAVADTLAQFFQIFIMLNIVLLVFNLLPIPPLDGYRVVEDLAPTNIRAKMTQYEKYGAIALLILVITPLSNYTIQPIFSVVIPYVFAFLNSIIAPIFGLL	failed
MSSIKIECVLPENCRCGESPVWEEVSNSLLFVDIPAKKVCRWDSFTKQVQRVTMDAPVSSVALRQSGGYVATIGTKFCALNWKEQSAVVLATVDNDKKNNRFNDGKVDPAGRYFAGTMAEETAPAVLERHQGALYSLFPDHHVKKYFDQVDISNGLDWSLDHKIFYYIDSLSYSVDAFDYDLQTGQISNRRSVYKLEKEEQIPDGMCIDAEGKLWVACYNGGRVIRLDPVTGKRLQTVKLPVDKTTSCCFGGKNYSEMYVTCARDGMDPEGLLRQPEAGGIFKITGLGVKGIAPYSYAG	failed
MDYGMYFFEHVTPYETLVRRMERVIASGKTPFQDYFLFESKGFGKVLILDKDVQSTERDEYIYHETLVHPAMLTHPEPKRVLIVGGGEGATLREVLKHPTVEKAVMVDIDGELVEVAKRHMPEWHQGAFDDPRAVLVIDDARAYLERTEERYDVVIIDLTDPVGEDNPARLLYTVEFYRLVKAHLNPGGVMGMQAGMILLTHHRVHPVVHRTVREAFRYVRSYKNHIPGFFLNFGFLLASDAFDPAAFSEGVIEARIRERNLALRHLTAPYLEAMFVLPKDLLEALEKETMVSTDQNPFYVTPEGEARQAPYKG	not failed
MVRKQKRARLIYNPTSGQEIMKKNVAEVLDILESFGYETSAFQTTPRADSAKNEAARASQAGFDLVIAAGGDGTINEVVSGIAPLKRRPKVAIIPTGTTNDFARALKIPRGNPVEATKLIGKNQTIHMDIGRAYNDKYFINIAAAGSLTELTYSVPSQLKTMFGYLAYLVKGAELLPRVRNVPVKVFYDHGVFEGEASMIFVALTNSVGGFETIAPDAKLDDGKFTLILVKTANLFELTDLIRLVLTGGRHINHKKIEYIKTSYLKIIPQGNPPKRMMINLDGEYGGDAPIELRNLKNHIEFFANTDEISDDAITLDTEELVLEAIAQKFAREAESLDEMDKTKEQD	not failed
MDENSLIYGLELQARALTPQYGESNDVCFFIATNSLKPTNQVHLIQYEEEQGSVQSKVFEHALGEVWKLNSCPRNPRLLASVYNVQKGAQVLTKAALFTLPENLNPDPEQLKSEYLPWEQVEVLDTEALGERVKTIEFHPNQDTLACVVDNKVAVMQRAESSTRVVAEVPASGSSSGSAKHTQHFTSGKWSHHHQGHQFLTLQDGNLSAYDVRDTQHCAWSINDAHGQMVRDLDCNPNKQCHLVTGGDDGYLRIWDCRMPKAPVFERSDHSHWVWCVRFNTFHDQLILSSSSDCKVLLTCAGSVSSETQVQAGLDESNFSGADAEERHKLLPDGLLQTFDQHEDSVYCAEWSNVDPWIFASLSYDGRVIISKVPKQYKYQIIF	failed
MPERINKMKIIAFYLPQFHNIPENDEWWGDGFTEWVNVKKAKPIFDGHNQPRVPLNHNYYNLLDDDVKIWQADLAKKYGVYGFCYYHYWFDGKLLLEKPMEQMLENKKVDIPFCICWANEPWTRAWVGETKTLIPQKYGSKKEWKEHFDYLLPFFKDPRYILDEGKPLVVIYRPEIIDVLNDMLDYWNELAKNAGFEGLKFAYQSAGMDELPKNKRNDSRFDYDIEFQPAYAFTKLNKNTLPVLRKIKKVVSDFVEKRTGLTLRFIGSGKVAALNRVDYDKAWETILNTTPESIINVPGAFVDWDNTPRHGERGRVYIGKTPEKFEKYLSEQIRRAKNVYHKDMIFMYAWNEWAEGGYLEPDQTSGYAYLEAIKKALDENGENPWQH	failed
KIERDKAERAKKYGGSVGSQPPPVAPEPGPVPSSPSQEPPTKREYDQCRIQVRLPDGTSLTQTFRAREQLAAVRLYVELHRGEELGGGQDPVQLLSGFPRRAFSEADMERPLQELGLVPSAVLIVAKKC	failed
MTERKLVAERNFEVNGYDIDAMGIVSNIVYIRWFEDLRTDFINQYMPYSDMMNQQISPILMNTEAEYKTPITIHDKPVGRCYLVKASKLRWEFEFEIESEDAVHCIGKQSGTFFDLQKKKVTRLPEVFQTILSLEHHHHHH	failed
MERAVPLAVPLGQTEVFQALQRLHMTIFSQSVSPCGKFLAAGNNYGQIAIFSLSSALSSEAKEESKKPVVTFQAHDGPVYSMVSTDRHLLSAGDGEVKAWLWAEMLKKGCKELWRRQPPYRTSLEVPEINALLLVPKENSLILAGGDCQLHTMDLETGTFTRVLRGHTDYIHCLALRERSPEVLSGGEDGAVRLWDLRTAKEVQTIEVYKHEECSRPHNGRWIGCLATDSDWMVCGGGPALTLWHLRSSTPTTIFPIRAPQKHVTFYQDLILSAGQGRCVNQWQLSGELKAQVPGSSPGLLSLSLNQQPAAPECKVLTAAGNSCRVDVFTNLGYRAFSLSF	failed
MEQTQQNHFTALFYKNVLLGILSMAAQSIFILADTFFIANGIGTEALAGLNIVLPLVNIINGLGWMFGVGGATLFSTTVAQKEIKKANQYFSLTIGLVFVIGRLFTLVSLIFSDQIIRGLQGTGVLFGLAKEYYMIYLSCSLLFILNNCLITFLRNDHNPRLATIAFVSGGIVNIILDYVFIYQFGWGMAGAAIATVMSPLTSLILITLHKWSPQRVLRFEKFKVKFQDVREIMSIGFSSFLNEFSSAFVMFLFNIVLLNLVGHVAISAYAIVANLNIIVIAIFTGIGQGAQPLLSRYYGLGETKVLRKFVKLSFITYLVAGFLFFLISQVFTGQIIEVFNSEGNDQLAQIARTAIRLYAISFLFTGLNFMGIYYFSAVRKPKMALMISSLRGFFLIVPVLFILVKLLGLTGVWLAMPVVEFVTFGLMLVGYLAYRNYLKKREAVT	failed
AIREREMKVLNIQVTSSCNYACGMCPFHGDGYSGEYFDERPTIRRDMSLDEIKLILEKASMEGFEWIDLTPNGEFFTHKQWYQILSLIKEFGLKIMITSNGGLLGEEDIKRACEVGVDHIVISVDSLSYESYKKIRKPATKLAFERAIHAPLYFKKYG	failed
MKILKISLTVVVEVALIYLFSLLVGWSFMEAFFLGSLAIFGAIWLIALNINQNNNIDHTIYKTGTVKPFQMTWGPYTTGATSLTAFSFIITTIYYLPYFL	failed
MFDQYRKTILAGAVALTCGLTAASTFAAGFQPAQPAGKLGAVVVDPYGNAPLTALVELDSHIISDVKVTVHGKGEKGVPVTYTVGKESLETYDGIPIFGLYQKFANNVTVEYKENGKAMKDDYVVQTSAIVNHYMDNRSISDLQQTKVIKVAPGFEDRLYLVNTHTFTPQGAEFHWHGEKDKNAGILDAGPAGGALPFDIAPYTFVVDTQGEYRWWLDQDTFYNGHDMNINKRGYLMGIRETPRGTFTAVQGQHWYEFDMMGQVLADHKLPRGFLDASHESIETVNGTVLLRVGKRDYRKEDGIHVHTIRDQIIEVDKSGRVVDVWDLTKILDPMRDALLGALDAGAVCVNVDLAHAGQQAKLEPDTPYGDALGVGAGRNWAHVNSIAYDAKDDSIILSSRHQGIVKIGRDKQVKWILAPSKGWNKQLASKLLKPVDDHGKPLTCDENGKCKDTDFDFTYTQHTAWLSSKGTLTVFDNGDGRGLEQPALPTMKYSRFVEYKIDEKKGTVQQVWEYGKERGYDFYSPITSVVEYQKDRDTMFGFGGSINLFDVGKPTVGKLNEIDYKTKEVKVEIDVLSDKPNQTHYRALLVHPTQMFK	failed
MTIVVSRKFLAILARAIEGEVATDTIFTLLGLKVVVTLASLLPASVFLSVLMVLGRMYRDNEMTVFACAGVGPLRIYRSILLFAGPVCVLGAFLSLQAMPWSERLSQELISKDEKGADVRGIKAGRFNEFSQGDVVLYAEQLNTDKTMSRVFAQSRRGDETGIVIAESGHMEINDAGDHFVVLNNGRRYQGVPGRADFVLNEFQAYGVRINPPEGSQAALKREAADSLHLWMSGRPRELAELQRRLAVPLGTFTLTLLAVPIARTSPRGGVWGNLISAFLIYIIYENLQKISQGLLATGKLSVWTSYAGIYAVMLLATSVLLARNSGWRWVRDTALGRR	failed
IVRDSQRHKQLPVDRRKSQMEEVQDELIHRLTIGRSAAQKKFHVPRQNVPVINITYDSTPEDVKTWLQSKGFNPVTVNSLGVLNGAQLFSLNKDELRTVCPEGARVYSQITVQKAALEDSSGSSELQEIMRRRQEKISAAASDSGVESFDEGSSH	failed
MRYRDNLKRSLKQAALAAGLLMTMSCAVRATPQDDLRSAVEYNRPALVQKLVAQGVDPNLDTRDGTPLLVDALKDKNIDVAEALIRAKGLDFERANAAGENALMMAAYQGLLPLVRLMVETYDVEVNKTGWTALHYAATNGHDAIVQYLLDHGAYIDAESPNGTTPLMMATMGGQITTVKLLLDEGADMNLRNQQKMDVIDFAKRYHQDEIAAGLESRRRKLAEPGAQPVPARQPAAPAGMRPAAPVVPDVPAPMPAPRAPESAIDRDATSGLPGSLSDQKTVPPPDLRGN	failed
MGRMSEKLGQDIKQSIFKVPPLIQKSDIDPEHCRVSAQLDDNVDDNIPLRVMLLLMDEVFDLKDRNQWLRRNIKNLLQQLIKATYGDTINRKIVDHVDNMTSPEQVSDYVKRFRDSYWPNGILAETPPRRDKNLRMRTRVAAKTTLLGIMPDELKHIIGADTTRKGILRVFEMFQHQPLNRRLVYVFLEGFLETLFPQYKFPELFEKLHSRSPRVLKYSHKLRSLQKR	failed
MHSTPKRVLLAGATGLTGEHLLDRILSEPTLAKVIAPARKALAEHPRLDNPVGPLAELLPQLDGSIDTAFCCLGTTIKEAGSEEAFRAVDFDLPLAVGKRALEMGARHYLVVSALGADAKSSIFYNRVKGELEQALQEQGWPQLTIARPSLLFGPREEFRLAEILAAPIARILPGKYHGIEACDLARALWRLALEEGKGVRFVESDELRKLGK	not failed
MALWMDAGATPTTEKEKADLEAISALKESTAIEFKEEGNECVRKGKKHYSEAIDCYTKAISQGVLSDSETSILFSNRSHVNLLLGNYRRALTDAEESMRLSPHNVKAVYRAAKASMSLDLLNEAKSYCEKGIENDPSNEDMKKLLKLVNSKKQEKEQHEAQASQAVVEAKACLSAIENRGVKIGKAMYRELTGLKKPMLDKNNILHWPVLLLYAEAMTSDFVEDFCETDMFATHLDMMFSEDSPPLPWDKNNEYSRDVIELYYEASSGTPLPRSRVLQYLLEGTKGSQAETTGEEDTSATKTPSYLKGSSGMVKVNERRTLHDVLKEPKFVIPEIPVFYIVSKRSKFYKDFTAGKWTPPN	failed
MAPAKSPRAWQRMLSGRRLDLLDPSPLDVEIADIAHGLARVARWNGQTRGDHAFTVAQHCLIVETIFCRMCPGATPDEMQMALLHDAPEYVIGDMISPFKSVVGGGYKTVEKRLEAAVHLRFGLPPHASRELKDRIKKADTVAAFFEATELAGFSTAEAQKFFGLPRGITRDMFDIIPLPSTEAQRLFIARFEAIETLRVTRTGGAV	not failed
MNTLYTLFATCPRGLETVLSQELGSLGCTDVQAFDGGVSCRGGLEQAYAANLHSRTAGRILLRLTKGTYRTERDIYKLAKNINWFNWFTLQQTFKVKIEAKRANVKSLQFAGLTVKDAVCDAFRDIYDARPSVDKAAPDVRIHAFLDERNVEIFIDTSGEALFKRGYRLDTGEAPLRENLAAGLLLSAGYDGTQPFQDPFCGSGTIAIEAAWIAAGRAPGMMRRFGFEKLQNFDKTLWADLRRRAEAQTRPVRAPIAGSDNGRRIVQTALDNAHNAGADDIVSFSVAGAQSVRPNGENGIMVSNPPYGVRLEEVRALQALYPQLGTWLKKHYAGWRVGMFTGDREMPKFMRLLPKRKIPLYNGNIDCRLFLIDMVQGSNR	not failed
